Where a chain is given by its changes, count along the chain named.
B1: 173 (protein)
chain: MTTRTRILTAFLSLLAANACAADAAPAAPHTVVLRAARMFDGASGKLVDHPQLTIVGNKIVRIAQGDKAEVPAGAEVVDLGDATLLPGFIDAHVHLSGQSSDNWYGDFFDNMMRFPAEQALYGAYYARITLEAGFTSVRDVGSTDWVALGLRNAIDAGKVPGPRMLVSNYAVGSTGGHADQDPVPPHKLPLAGPLQGVCNGPEECRAAVRYQIKYGANVIKFMPSGGVLSLSDPVDAPELSQDEMNAVIGESHAWGRKVAAHAHGDKAAKMAVAAGVDSIEHGSFIEDDTLRAMKAKNVYLVPTISAAAHVEEKIGTYPPVIAEKGRAAAAHLRQTFRHAVQIGVPIALGTDAGVGAHGSNAREFRYMVENGLTPAQALLAGTANAARLLGTFDRVGTLEAGKLADVVAVPGNPIADITVTERPLFVMKDGVVVRRDAVR
modifications: exemplary polypeptide
B2: 183 (protein)
chain: B1 chain with V184I, A308I, Y318F, A330L
modifications: exemplary polypeptide
B3: 189 (protein)
chain: B1 chain with V184I, A308I, Y318F, G354L
modifications: exemplary polypeptide
B4: 190 (protein)
chain: B1 chain with V184I, A308I, Y318F, G354S
modifications: exemplary polypeptide
B5: 174 (protein)
chain: B1 chain with A308V
modifications: exemplary polypeptide
B6: 197 (protein)
chain: B1 chain with V184I, A308I, Y318F, G356Y
modifications: exemplary polypeptide
B7: 200 (protein)
chain: B1 chain with W104P, V184I, A308I, Y318F
modifications: exemplary polypeptide
B8: 186 (protein)
chain: B1 chain with V184I, A308I, Y318F, L333I
modifications: exemplary polypeptide
B9: 188 (protein)
chain: B1 chain with V184I, A308I, Y318F, L333V
modifications: exemplary polypeptide
B10: 184 (protein)
chain: B1 chain with V184I, A308I, Y318F, A330M
modifications: exemplary polypeptide
B11: 192 (protein)
chain: B1 chain with V184I, A308I, Y318F, G354V
modifications: exemplary polypeptide
B12: 175 (protein)
chain: B1 chain with Y318F, G354A
modifications: exemplary polypeptide
B13: 202 (protein)
chain: B1 chain with V184I, A308I, Y318F, I322L
modifications: exemplary polypeptide
B14: 193 (protein)
chain: B1 chain with V184I, A308I, Y318F, G356A
modifications: exemplary polypeptide
B15: 182 (protein)
chain: B1 chain with Y170R, V184I, A308I, Y318F
modifications: exemplary polypeptide
B16: 196 (protein)
chain: B1 chain with V184I, A308I, Y318F, G356V
modifications: exemplary polypeptide
B17: 195 (protein)
chain: B1 chain with V184I, A308I, Y318F, G356P
modifications: exemplary polypeptide
B18: 198 (protein)
chain: B1 chain with W104F, V184I, A308I, Y318F
modifications: exemplary polypeptide
B19: 180 (protein)
chain: B1 chain with Y170E, V184I, A308I, Y318F
modifications: exemplary polypeptide
B20: 179 (protein)
chain: B1 chain with V184I, A308V, G354A
modifications: exemplary polypeptide
B21: 181 (protein)
chain: B1 chain with Y170F, V184I, A308I, Y318F
modifications: exemplary polypeptide
B22: 177 (protein)
chain: B1 chain with A308I, G354A
modifications: exemplary polypeptide
B23: 201 (protein)
chain: B1 chain with W104Y, V184I, A308I, Y318F
modifications: exemplary polypeptide
B24: 187 (protein)
chain: B1 chain with V184I, A308I, Y318F, L333M
modifications: exemplary polypeptide
B25: 194 (protein)
chain: B1 chain with V184I, A308I, Y318F, G356F
modifications: exemplary polypeptide

test: Enzymatic activity comparison: activity remaining after 65° C. for 10 min at pH 6.0, relative to SEQ ID NO: 1; type: physicochemical; details: not given
Method: To compare the temperature behavior and thermostability of selected enzymes to one another, enzyme was incubated at 65° C. for 10 min at pH 6.0. The enzymatic activity remaining after incubation was compared to the remaining activity of the enzyme of SEQ ID NO: 1 after incubation, the latter being set to 100%, see Table 16.

Molecule	Enzymatic activity remaining after incubation, compared to SEQ ID NO: 1 (set to 100%) [%]
B1	53
B2	75
B3	19
B4	15
B5	54
B6	29
B7	88
B8	42
B9	45
B10	46
B11	41
B12	13
B13	25
B14	42
B15	38
B16	57
B17	38
B18	55
B19	28
B20	17
B21	47
B22	20
B23	54
B24	36
B25	45

test: OTA detoxification activity assay (specific activity, fluorescence reduction ex/em 390/450 nm); type: biochemical; details: pH 6.0; SEQ ID NO: 1 = 100%
How it was run: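 Recombinant enzyme preparation with 200 ng/mL OTA in 100 mM sodium phosphate, at pH 6.0 and pH 7.5, 37° C. Degradation followed as the fall in fluorescence at ex/em 390/450 nm. Specific activity taken from the initial linear slope; one unit degrades 1 μmol OTA per min at a starting OTA of […].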

Molecule	Specific OTA detoxification activities in % compared to the enzyme of SEQ ID NO: 1, pH 6.0 [%]
B1	27
B2	58
B3	82
B4	122
B5	45
B6	59
B7	18
B8	142
B9	84
B10	103
B11	69
B12	121
B13	59
B14	81
B15	98
B16	48
B17	148
B18	111
B19	91
B20	49
B21	138
B22	94
B23	134
B24	51
B25	78

same assay, conditions: pH 7.5; SEQ ID NO: 1 = 100%

Molecule	Specific OTA detoxification activities in % compared to the enzyme of SEQ ID NO: 1, pH 7.5 [%]
B1	53
B2	55
B3	22
B4	85
B5	59
B6	29
B7	25
B8	115
B9	52
B10	76
B11	30
B12	108
B13	47
B14	85
B15	91
B16	58
B17	100
B18	84
B19	83
B20	66
B21	112
B22	90
B23	121
B24	58
B25	52

Source: patent publication US20240352438A1, “MEANS AND METHODS FOR DETOXIFYING OCHRATOXIN A” (DSM Austria GmbH, priority 2021, published 2024)
